doi:10.1101/626572

Target: Concanavalin A (Con A) (UniProt P02866;P02866 164-281;30-148)
Test: particle-based flow cytometry

Concanavalin A (Con A), sequence (P02866 164-281, chain 1 of 2): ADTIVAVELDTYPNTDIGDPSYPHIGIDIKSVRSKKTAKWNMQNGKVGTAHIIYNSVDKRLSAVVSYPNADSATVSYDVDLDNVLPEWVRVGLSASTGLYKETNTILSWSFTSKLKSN
Concanavalin A (Con A), sequence (P02866 30-148, chain 2 of 2): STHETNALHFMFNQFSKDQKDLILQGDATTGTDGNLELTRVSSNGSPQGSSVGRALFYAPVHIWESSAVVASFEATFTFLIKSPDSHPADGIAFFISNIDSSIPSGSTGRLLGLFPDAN

B1: ConA-3-1n (ssDNA)
DNA: GATCCCAGTCCGAAGTAATCGTTGCATCTGCACGACTGGTGAGCTTGAGTGGCAGAAGAACTTGTGCAAACGGCTATAGG
binding result: no binding
